From patent US20190225669A1 (ACCELERON PHARMA, published 2019)
Like-named read-outs stand apart in the source and are kept apart here. Blank lines part the entries; values can stand above or below the binder they belong to.

What was measured:
GDF11 [1] = target: T1, GDF11 (UniProt O95390 299-407); experiment: Biacore SPR
T1 construct: also called BMP11
T1 sequence (looked up): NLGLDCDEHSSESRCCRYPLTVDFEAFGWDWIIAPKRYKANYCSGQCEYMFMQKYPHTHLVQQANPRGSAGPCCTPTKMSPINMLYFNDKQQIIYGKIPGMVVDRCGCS
Procedure: (§1) Ligands were injected and allowed to flow over the captured receptor protein.

BMP5 = target: T2, BMP5 (UniProt P22003 317-454, limits assumed); experiment: Biacore SPR
T2 sequence (looked up): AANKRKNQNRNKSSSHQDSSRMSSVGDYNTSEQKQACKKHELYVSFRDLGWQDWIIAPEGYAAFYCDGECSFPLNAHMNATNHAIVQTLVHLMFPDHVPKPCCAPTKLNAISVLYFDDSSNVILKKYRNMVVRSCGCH
Procedure: as §1

BMP10 [2] = target: T3, BMP10 (UniProt O95393 317-424); experiment: Biacore SPR
T3 sequence (looked up): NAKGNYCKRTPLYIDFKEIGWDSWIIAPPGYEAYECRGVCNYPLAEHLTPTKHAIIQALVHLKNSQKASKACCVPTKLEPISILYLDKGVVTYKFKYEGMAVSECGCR
Procedure: as §1

GDF3 [3] = target: T4, GDF3 (UniProt Q9NR23 251-364); experiment: Biacore SPR
T4 sequence (looked up): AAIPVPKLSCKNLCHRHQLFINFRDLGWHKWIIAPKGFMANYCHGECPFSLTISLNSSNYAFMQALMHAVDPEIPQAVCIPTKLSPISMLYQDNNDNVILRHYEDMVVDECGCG
Procedure: as §1

GDF8 [4] = target: T5, GDF8 (UniProt O14793 267-375); experiment: Biacore SPR
T5 construct: also called myostatin
T5 sequence (looked up): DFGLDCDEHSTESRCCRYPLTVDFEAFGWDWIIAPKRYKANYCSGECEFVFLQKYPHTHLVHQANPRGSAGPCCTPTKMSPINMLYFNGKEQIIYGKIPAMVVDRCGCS
Procedure: as §1

activin A [5] = target: T6, activin A (UniProt P08476 311-426); experiment: Biacore SPR
T6 sequence (looked up): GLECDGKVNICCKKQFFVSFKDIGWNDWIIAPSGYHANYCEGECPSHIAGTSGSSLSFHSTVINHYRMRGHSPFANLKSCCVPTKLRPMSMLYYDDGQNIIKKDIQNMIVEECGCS
Procedure: as §1

activin B [6] = target: T7, activin B (UniProt P09529 293-407); experiment: Biacore SPR
T7 sequence (looked up): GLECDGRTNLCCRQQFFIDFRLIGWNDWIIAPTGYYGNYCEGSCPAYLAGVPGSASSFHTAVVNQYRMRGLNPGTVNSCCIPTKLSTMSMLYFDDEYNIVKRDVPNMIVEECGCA
Procedure: as §1

BMP6 [7] = target: T8, BMP6 (UniProt P22004 382-513, limits assumed); experiment: Biacore SPR
T8 sequence (looked up): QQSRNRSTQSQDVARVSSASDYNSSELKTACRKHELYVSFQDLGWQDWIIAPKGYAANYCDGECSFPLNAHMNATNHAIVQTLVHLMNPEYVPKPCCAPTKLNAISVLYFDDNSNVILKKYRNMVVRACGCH
Procedure: as §1

BMP9 = target: T9, BMP9 (UniProt Q9UK05 320-429); experiment: Biacore SPR; kinetics indeterminate (transient)
T9 construct: also called GDF2
T9 sequence (looked up): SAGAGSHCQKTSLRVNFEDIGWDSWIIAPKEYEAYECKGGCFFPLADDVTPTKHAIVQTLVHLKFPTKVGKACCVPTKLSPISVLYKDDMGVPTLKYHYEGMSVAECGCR
Procedure: as §1

GDF11 [8] = target: T1, GDF11; experiment: Biacore SPR; remark: listed apart in the source
Procedure: as §1

BMP10 [9] = target: T3, BMP10; experiment: Biacore SPR; remark: listed apart in the source
Procedure: as §1

GDF3 [10] = target: T4, GDF3; experiment: Biacore SPR; remark: listed apart in the source
Procedure: as §1

GDF8 [11] = target: T5, GDF8; experiment: Biacore SPR; remark: listed apart in the source
Procedure: as §1

activin A [12] = target: T6, activin A; experiment: Biacore SPR; remark: listed apart in the source
Procedure: as §1

activin B [13] = target: T7, activin B; experiment: Biacore SPR; remark: listed apart in the source
Procedure: as §1

BMP6 [14] = target: T8, BMP6; experiment: Biacore SPR; remark: listed apart in the source
Procedure: as §1

Kd (GDF11 [1]): 0.008 nM
koff (GDF11 [1]): 0.00075 s⁻¹
kon (GDF11 [1]): 9.5e+07 M⁻¹ s⁻¹
Kd (BMP5): 57 nM
koff (BMP5): 0.0085 s⁻¹
kon (BMP5): 150000 M⁻¹ s⁻¹
Kd (BMP10 [2]): 0.19 nM
koff (BMP10 [2]): 0.0028 s⁻¹
kon (BMP10 [2]): 1.5e+07 M⁻¹ s⁻¹
Kd (GDF3 [3]): 4.5 nM
koff (GDF3 [3]): 0.01 s⁻¹
kon (GDF3 [3]): 2.3e+06 M⁻¹ s⁻¹
Kd (GDF8 [4]): 0.27 nM
koff (GDF8 [4]): 0.001 s⁻¹
kon (GDF8 [4]): 3.7e+06 M⁻¹ s⁻¹
Kd (activin A [5]): 0.043 nM
koff (activin A [5]): 0.0019 s⁻¹
kon (activin A [5]): 4.4e+07 M⁻¹ s⁻¹
Kd (activin B [6]): 0.017 nM
koff (activin B [6]): 0.0002 s⁻¹
kon (activin B [6]): 1.2e+07 M⁻¹ s⁻¹
Kd (BMP6 [7]): 5.3 nM
koff (BMP6 [7]): 0.0063 s⁻¹
kon (BMP6 [7]): 1.2e+06 M⁻¹ s⁻¹
Kd (BMP9): > 1.4 nM
B1: ActRIIB-Fc:ALK7-Fc heterodimer (Fc fusion)
chain 1: GRGEAETRECIYYNANWELERTNQSGLERCEGEQDKRLHCYASWRNSSGTIELVKKGCWLDDFNCYDRQECVATEENPQVYFCCCEGNFCNERFTHLPEAGGPEVTYEPPPTAPTGGGTHTCPPCPAPELLGGPSVFLFPPKPKDTLMISRTPEVTCVVVDVSHEDPEVKFNWYVDGVEVHNAKTKPREEQYNSTYRVVSVLTVLHQDWLNGKEYKCKVSNKALPAPIEKTISKAKGQPREPQVYTLPPSRKEMTKNQVSLTCLVKGFYPSDIAVEWESNGQPENNYKTTPPVLKSDGSFFLYSKLTVDKSRWQQGNVFSCSVMHEALHNHYTQKSLSLSPGK
chain 2: GLKCVCLLCDSSNFTCQTEGACWASVMLTNGKEQVIKSCVSLPELNAQVFCHSSNNVTKTECCFTDFCNNITLHLPTASPNAPKLGPMETGGGTHTCPPCPAPELLGGPSVFLFPPKPKDTLMISRTPEVTCVVVDVSHEDPEVKFNWYVDGVEVHNAKTKPREEQYNSTYRVVSVLTVLHQDWLNGKEYKCKVSNKALPAPIEKTISKAKGQPREPQVYTLPPSREEMTKNQVSLTCLVKGFYPSDIAVEWESNGQPENNYDTTPPVLDSDGSFFLYSDLTVDKSRWQQGNVFSCSVMHEALHNHYTQKSLSLSPG
notes: C-terminal Lys optional; also called ActRIIB-Fc:ALK7 heterodimer

Kd (GDF11 [8]): 0.2 nM
koff (GDF11 [8]): 0.00046 s⁻¹
kon (GDF11 [8]): 2.3e+06 M⁻¹ s⁻¹
Kd (BMP10 [9]): 0.15 nM
koff (BMP10 [9]): 0.0022 s⁻¹
kon (BMP10 [9]): 2.3e+07 M⁻¹ s⁻¹
Kd (GDF3 [10]): 8.5 nM
koff (GDF3 [10]): 0.0097 s⁻¹
kon (GDF3 [10]): 1.1e+06 M⁻¹ s⁻¹
Kd (GDF8 [11]): 0.49 nM
koff (GDF8 [11]): 0.00052 s⁻¹
kon (GDF8 [11]): 1.1e+06 M⁻¹ s⁻¹
Kd (activin A [12]): 0.046 nM
koff (activin A [12]): 0.0016 s⁻¹
kon (activin A [12]): 3.6e+07 M⁻¹ s⁻¹
Kd (activin B [13]): 0.079 nM
koff (activin B [13]): 0.00031 s⁻¹
kon (activin B [13]): 3.9e+06 M⁻¹ s⁻¹
Kd (BMP6 [14]): 1.7 nM
koff (BMP6 [14]): 0.015 s⁻¹
kon (BMP6 [14]): 9.3e+06 M⁻¹ s⁻¹
Kd (BMP9): > 6.6 nM
B2: ActRIIB-Fc:ALK5-Fc heterodimer (Fc fusion)
chain 1: GRGEAETRECIYYNANWELERTNQSGLERCEGEQDKRLHCYASWRNSSGTIELVKKGCWLDDFNCYDRQECVATEENPQVYFCCCEGNFCNERFTHLPEAGGPEVTYEPPPTAPTGGGTHTCPPCPAPELLGGPSVFLFPPKPKDTLMISRTPEVTCVVVDVSHEDPEVKFNWYVDGVEVHNAKTKPREEQYNSTYRVVSVLTVLHQDWLNGKEYKCKVSNKALPAPIEKTISKAKGQPREPQVYTLPPSRKEMTKNQVSLTCLVKGFYPSDIAVEWESNGQPENNYKTTPPVLKSDGSFFLYSKLTVDKSRWQQGNVFSCSVMHEALHNHYTQKSLSLSPGK
chain 2: ALLPGATALQCFCHLCTKDNFTCVTDGLCFVSVTETTDKVIHNSMCIAEIDLIPRDRPFVCAPSSKTGSVTTTYCCNQDHCNKIELPTTVKSSPGLGPVETGGGTHTCPPCPAPELLGGPSVFLFPPKPKDTLMISRTPEVTCVVVDVSHEDPEVKFNWYVDGVEVHNAKTKPREEQYNSTYRVVSVLTVLHQDWLNGKEYKCKVSNKALPAPIEKTISKAKGQPREPQVYTLPPSREEMTKNQVSLTCLVKGFYPSDIAVEWESNGQPENNYDTTPPVLDSDGSFFLYSDLTVDKSRWQQGNVFSCSVMHEALHNHYTQKSLSLSPG
notes: C-terminal Lys optional; also called ActRIIB-Fc:ALK5-Fc heterodimeric complex
